Target: T1, purified human Clec7a protein (R&D Systems Cat. 1859-DC-050) (human, UniProt Q9BXN2 66-247)
T1 construct: Clec7a, human, bought recombinant protein; source: bought: R&D Systems (Cat. 1859-DC-050)
T1 sequence (looked up): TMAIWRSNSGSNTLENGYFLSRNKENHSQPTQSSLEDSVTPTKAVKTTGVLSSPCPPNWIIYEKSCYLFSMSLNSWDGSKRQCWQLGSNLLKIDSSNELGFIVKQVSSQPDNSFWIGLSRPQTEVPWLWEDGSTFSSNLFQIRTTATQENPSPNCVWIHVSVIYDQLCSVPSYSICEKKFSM
Assay: MST; Monolith NT.115, 20 °C, 20 mM HEPES pH 8.0, 150 mM NaCl; Clec7a constant at 50 nM, MD2 varied from 10 µM to 1.2 nM; n = 3
Conditions: both partners purified

B1: human MD2 protein (R&D Systems Cat. 1787-MD) (ligand, UniProt Q9Y6Y9 19-160, looked up)
chain: QKQYWVCNSSDASISYTYCDKMQYPISINVNPCIELKRSKGLLHIFYIPRRDLKQLYFNLYITVNTMNLPKRKEVICRGSDDDYSFCRALKGETVNTTISFSFKGIKFSKGKYKCVVEAISGSPEEMLFCLEFVILHQPNSN
notes: MD2 (lymphocyte antigen 96), human, bought recombinant protein; source: bought: R&D Systems (Cat. 1787-MD)
  Kd: 2960 nM

— PMC11423142, “Clec7a Worsens Long‐Term Outcomes after Ischemic Stroke by Aggravating Microglia‐Mediated Synapse Elimination” (Advanced Science, 2024)
